Data set [1] has as its system RapZ-CTD (Strep-tag cleaved) (Escherichia coli). Kind of data set: BLI. The note with it: 1 mM Mg2+; Kd values only in figure; incomplete dissociation; 5' biotin; BLI: 25 mM Tris pH 7.5, 50 mM NaCl, 50 mM KCl, 1 mM MgCl2, 1 mM DTT, temperature not stated; EMSA (GlmY): 10 mM Tris pH 7.0, 100 mM KCl, 10 mM MgCl2, 1 ug …; scale: fold higher affinity than full-length RapZ. For orientation: A gel shift assay detects complexes by their altered migration in electrophoresis.

Data set [2] deals with RapZ full length (Strep-tag cleaved) (Escherichia coli). Kind of data set: BLI. The note with it: 1 mM Mg2+; Kd values only in figure; incomplete dissociation; 5' biotin; BLI: 25 mM Tris pH 7.5, 50 mM NaCl, 50 mM KCl, 1 mM MgCl2, 1 mM DTT, temperature not stated; EMSA (GlmY): 10 mM Tris pH 7.0, 100 mM KCl, 10 mM MgCl2, 1 ug ….
Data set [3] concerns the molecule itself. Kind of data set: SEC-MALS + AUC; RapZ-CTD alone. SEC-MALS: 30 μM on Superdex 200 10/300 GL, 25 mM Tris pH 7.5, 200 mM KCl, 1 mM TCEP, 25°C. Sedimentation velocity AUC: 0.5–1 mg/ml, 20°C, 50 000 rpm.
Data set [4] concerns the molecule itself. Kind of data set: SEC-MALS; full-length RapZ alone, 30 μM on Superdex 200 10/300 GL, 25°C.

For the molecule GlmY processed (BLI), the relative binding affinity in data set [1] amounted to 2. In data set [2], this molecule came in with a relative binding affinity (relative Kd-type affinity (reference)) of 1. For GlmZ full length (BLI) the same measures were 2 and 1. For GlmZ processed (BLI) the same measures were 2 and 1.

B1: RapZ-CTD (154–284) (domain or fragment, Escherichia coli, UniProt P0A894 154-284, looked up)
chain: GKRERELTMVFESFGFKHGIPIDADYVFDVRFLPNPHWDPKLRPMTGLDKPVAAFLDRHTEVHNFIYQTRSYLELWLPMLETNNRSYLTVAIGCTGGKHRSVYIAEQLADYFRSRGKNVQSRHRTLEKRKP
notes: RapZ, Escherichia coli, C-terminal domain, residues 154-284; also called C-terminal domain of RapZ; source: E. coli Rosetta, purified (Strep Trap, MonoS, gel filtration)
On to B1, for which the “stoichiometry N” value in data set [3] was found to be 2.

B2: full length Escherichia coli RapZ (natural protein, UniProt P0A894 1-284, looked up)
chain: MVLMIVSGRSGSGKSVALRALEDMGFYCVDNLPVVLLPDLARTLADREISAAVSIDVRNMPESPEIFEQAMSNLPDAFSPQLLFLDADRNTLIRRYSDTRRLHPLSSKNLSLESAIDKESDLLEPLRSRADLIVDTSEMSVHELAEMLRTRLLGKRERELTMVFESFGFKHGIPIDADYVFDVRFLPNPHWDPKLRPMTGLDKPVAAFLDRHTEVHNFIYQTRSYLELWLPMLETNNRSYLTVAIGCTGGKHRSVYIAEQLADYFRSRGKNVQSRHRTLEKRKP
notes: RapZ (formerly YhbJ), Escherichia coli, full length, residues 1-284; also called YhbJ; full-length RapZ (1–284); source: E. coli Rosetta, purified (Strep Trap, heparin, gel filtration)
On to B2, for which the “stoichiometry N” value in data set [4] was 4.

For orientation: stoichiometry N means the number of molecules, sites or subunits per partner or assembly.

These data come from paper PMC5737377, “Structural insights into RapZ-mediated regulation of bacterial amino-sugar metabolism” (Nucleic Acids Research, 2017).
